In patent US20050192211A1 (Merck KGaA, published 2005) one finds ED50, TF-1 cell proliferation (3H-thymidine incorporation); S.D. 0.96; N 10 data, which are given here for one substance.

The target of the assay is T1, EPO receptor (UniProt P19235 25-508, limits assumed).
T1 sequence (looked up): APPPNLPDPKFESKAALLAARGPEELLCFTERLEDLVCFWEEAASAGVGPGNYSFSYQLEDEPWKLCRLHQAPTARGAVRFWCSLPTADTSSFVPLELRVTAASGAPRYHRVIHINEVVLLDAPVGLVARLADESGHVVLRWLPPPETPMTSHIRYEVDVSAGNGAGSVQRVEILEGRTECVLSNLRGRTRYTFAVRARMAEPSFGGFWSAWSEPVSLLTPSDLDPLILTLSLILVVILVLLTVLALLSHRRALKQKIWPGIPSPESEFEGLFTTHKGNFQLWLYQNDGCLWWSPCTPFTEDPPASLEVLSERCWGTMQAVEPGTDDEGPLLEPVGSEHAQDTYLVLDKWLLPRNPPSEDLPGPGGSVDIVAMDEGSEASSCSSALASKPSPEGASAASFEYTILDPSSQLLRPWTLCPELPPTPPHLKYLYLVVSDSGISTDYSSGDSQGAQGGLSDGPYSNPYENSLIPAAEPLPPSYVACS
The assay is described as follows: cell-based or functional assay.

EPO (Aranesp®) (ligand) showed an ED50, TF-1 cell proliferation (3H-thymidine incorporation); S.D. 0.96; N 10 of 2.4 ng/mL.
